# Values quoted from earlier work, collected in PMC7468149.
# Assays:
# [1] = biological target: VEGFR2 (Homo sapiens) (UniProt P35968); assay: SPR
# [2] = biological target: VEGFR1 (Homo sapiens) (UniProt P17948); assay: SPR
# Chain of UniProt P17948 (P17948 27-1338): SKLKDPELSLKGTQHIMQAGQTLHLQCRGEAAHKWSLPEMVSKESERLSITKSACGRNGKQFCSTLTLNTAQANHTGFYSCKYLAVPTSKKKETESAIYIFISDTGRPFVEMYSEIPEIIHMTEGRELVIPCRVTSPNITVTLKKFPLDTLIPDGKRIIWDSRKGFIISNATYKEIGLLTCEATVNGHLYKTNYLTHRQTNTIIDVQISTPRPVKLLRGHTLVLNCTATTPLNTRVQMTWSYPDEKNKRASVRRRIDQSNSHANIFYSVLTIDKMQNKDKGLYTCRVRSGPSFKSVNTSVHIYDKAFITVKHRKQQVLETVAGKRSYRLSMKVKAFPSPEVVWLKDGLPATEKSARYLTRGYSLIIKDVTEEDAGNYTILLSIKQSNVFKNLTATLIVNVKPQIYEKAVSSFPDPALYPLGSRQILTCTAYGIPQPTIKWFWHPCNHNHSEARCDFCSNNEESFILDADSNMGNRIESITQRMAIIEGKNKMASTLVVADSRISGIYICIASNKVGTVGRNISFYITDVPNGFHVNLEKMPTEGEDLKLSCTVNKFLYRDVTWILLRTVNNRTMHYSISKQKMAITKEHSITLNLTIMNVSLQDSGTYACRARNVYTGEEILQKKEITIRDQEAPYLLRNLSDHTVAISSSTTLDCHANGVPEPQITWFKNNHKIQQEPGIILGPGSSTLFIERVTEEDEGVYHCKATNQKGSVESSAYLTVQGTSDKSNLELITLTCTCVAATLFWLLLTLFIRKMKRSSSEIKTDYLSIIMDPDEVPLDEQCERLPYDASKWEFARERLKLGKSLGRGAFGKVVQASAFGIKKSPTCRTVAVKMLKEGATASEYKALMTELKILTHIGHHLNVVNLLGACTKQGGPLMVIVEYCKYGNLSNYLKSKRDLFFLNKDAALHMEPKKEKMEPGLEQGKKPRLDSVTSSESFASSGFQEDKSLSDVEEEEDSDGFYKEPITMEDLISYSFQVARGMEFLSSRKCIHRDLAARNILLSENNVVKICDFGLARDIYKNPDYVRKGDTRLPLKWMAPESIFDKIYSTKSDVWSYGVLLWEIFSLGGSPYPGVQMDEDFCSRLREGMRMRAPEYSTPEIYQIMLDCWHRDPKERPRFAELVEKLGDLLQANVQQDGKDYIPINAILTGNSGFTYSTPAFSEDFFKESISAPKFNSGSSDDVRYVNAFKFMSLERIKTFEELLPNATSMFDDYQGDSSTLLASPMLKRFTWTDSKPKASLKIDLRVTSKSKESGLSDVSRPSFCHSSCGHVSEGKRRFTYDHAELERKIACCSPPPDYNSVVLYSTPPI
# Chain of UniProt P35968 (P35968 20-1356): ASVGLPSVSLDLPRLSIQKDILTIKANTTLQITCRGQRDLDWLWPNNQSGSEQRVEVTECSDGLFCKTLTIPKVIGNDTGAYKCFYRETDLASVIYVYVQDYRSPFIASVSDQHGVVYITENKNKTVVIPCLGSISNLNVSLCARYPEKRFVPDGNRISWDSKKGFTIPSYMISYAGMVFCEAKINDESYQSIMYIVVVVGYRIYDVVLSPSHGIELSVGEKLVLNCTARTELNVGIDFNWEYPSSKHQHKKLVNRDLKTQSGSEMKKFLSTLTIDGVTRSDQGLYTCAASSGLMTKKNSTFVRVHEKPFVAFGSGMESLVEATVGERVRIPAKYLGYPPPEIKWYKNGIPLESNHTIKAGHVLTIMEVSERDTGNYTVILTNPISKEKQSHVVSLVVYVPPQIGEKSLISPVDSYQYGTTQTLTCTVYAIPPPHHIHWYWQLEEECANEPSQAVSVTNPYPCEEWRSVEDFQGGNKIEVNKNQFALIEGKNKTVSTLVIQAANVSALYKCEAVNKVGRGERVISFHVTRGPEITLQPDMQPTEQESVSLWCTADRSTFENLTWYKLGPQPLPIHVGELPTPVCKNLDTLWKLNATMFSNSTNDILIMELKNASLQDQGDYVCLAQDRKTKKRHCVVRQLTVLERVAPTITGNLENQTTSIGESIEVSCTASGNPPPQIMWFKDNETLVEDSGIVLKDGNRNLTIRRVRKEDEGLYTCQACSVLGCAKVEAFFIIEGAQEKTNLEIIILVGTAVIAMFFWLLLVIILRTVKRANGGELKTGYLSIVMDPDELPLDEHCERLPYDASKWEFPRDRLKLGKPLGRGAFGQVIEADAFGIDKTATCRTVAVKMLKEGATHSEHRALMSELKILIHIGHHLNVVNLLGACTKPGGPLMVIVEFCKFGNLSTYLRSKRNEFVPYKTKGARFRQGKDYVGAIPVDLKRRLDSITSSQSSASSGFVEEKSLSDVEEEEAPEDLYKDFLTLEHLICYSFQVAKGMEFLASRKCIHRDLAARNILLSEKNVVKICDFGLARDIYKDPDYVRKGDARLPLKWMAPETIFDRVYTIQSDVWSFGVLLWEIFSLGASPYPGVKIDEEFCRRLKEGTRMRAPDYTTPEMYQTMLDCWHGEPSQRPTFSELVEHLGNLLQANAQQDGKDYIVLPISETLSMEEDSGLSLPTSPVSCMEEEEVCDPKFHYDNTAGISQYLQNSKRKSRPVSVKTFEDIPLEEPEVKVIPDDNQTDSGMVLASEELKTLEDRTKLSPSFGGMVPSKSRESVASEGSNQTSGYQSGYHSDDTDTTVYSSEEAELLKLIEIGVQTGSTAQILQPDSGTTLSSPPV
substance,measurement,setting,value
VEGF-A165a (from UniProt P15692),Kd,[1],0.052 nM
same,Kd,[2],0.0075 nM
